This test addresses human Y4 receptor (human, UniProt P50391 1-375). The experiment in a line: 125I-PP displacement.

Sequence of human Y4 receptor (P50391 whole entry): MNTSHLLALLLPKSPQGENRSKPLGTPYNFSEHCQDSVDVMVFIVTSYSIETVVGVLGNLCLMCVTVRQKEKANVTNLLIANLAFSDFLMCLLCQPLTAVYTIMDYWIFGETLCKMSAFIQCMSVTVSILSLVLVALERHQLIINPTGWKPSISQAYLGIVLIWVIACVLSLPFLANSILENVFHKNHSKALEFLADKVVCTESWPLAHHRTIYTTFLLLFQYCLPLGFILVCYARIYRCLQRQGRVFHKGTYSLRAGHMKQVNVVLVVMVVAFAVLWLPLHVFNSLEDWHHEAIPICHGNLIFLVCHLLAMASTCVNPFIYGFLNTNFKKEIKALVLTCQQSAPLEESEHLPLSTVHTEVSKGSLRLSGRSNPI

Regarding GAPLEPEAPGDNATPEQMAKYYSELRRYIDKLTRPRY [4060693], the IC50 worked out at 0.172 nM.
As for GAPLEPVAPGDNATPEQMARYYSELRRYIDKLTRPRY [4060690], the IC50 turned out to be 0.171 nM. This IC50 and that of the molecule before are within 1.5-fold of each other.
Take GAPLEPVYPGDNATPEQMARYYSELRRYIDKLTRPRY [4060604]: the IC50 turned out to be 0.121 nM. This IC50 and that of the molecule before are within 1.5-fold of each other.
In the case of GAPLEPEYPGDNATPEQLARYAAALRRYINKLTRPRY [4060356] it was 0.091 nM; in that of GAPLEPEYPGDNATPEEMARYAAALRRYINKLTRPRY [4060359], 0.099 nM; in that of GAPLEPEYPGDNATPEQMARYAAALRRYINHLTRPRY [4060358], 0.08 nM.
Under AAPLEPTYPGDNATPEQMARYAAALRRYIDKLTRPRY [4060695] stands 0.091 nM; under GAPLEPVYPGDNATPEQLAKYAAELRRYIDKLTRPRY [4060897], 0.137 nM.
Under PAPLEPEYPGDNATPEQKAKYAAALRRYINRLTRPRY [4060278] stands 0.062 nM; under GAPLEPEYPGDDATPEQKARYAAALRRYINKLTRPRY [4060311], 0.099 nM; under GAPLEPEYPGDNATPEQMAKYAAALRRYIDKLTRPRY [4060896], 0.114 nM.
GAPLEPEYPGDNATPEQKAKYAAALRRYINRLTRPRY [4060301]: the IC50 stood at 0.036 nM.
PAPLEPEYPGDNATPEQKAKYAAALRRYINHLTRPRY [4060275] showed an IC50 of 0.106 nM.
In turn, GAPLEPEYPGDNATPEQKARYAAALRRYINKLTRPRY [4060309] registered an IC50 of 0.046 nM. This IC50 lies about 2.3-fold lower than the previous one.
Under YAPLEPEYPGDDATPQQKARYAAELRRYIDKLTRPRY [4060682] stands 0.131 nM.
Under YAPLEPEAPGDDATPQQKARYAAELRRYINKLTRPRY [4060681] stands 0.136 nM.
Under AAPLEPEYPGDDATPQQKARYAAELRRYINKLTRPRY [4060686] stands 0.055 nM; under PAPLEPTYPGDNATPEQKAKYYSELRRYINKLTRPRY [4060280], 0.064 nM; under PAPLEPKYPGDNATPEQLAKYYSELRRYIDKLTRPRY [4060605], 0.14 nM.
As for PAPLEPKYPGDNATPEQMAKYYSELRRYIDRLTRPRY [4060603], the IC50 is 0.102 nM.
Consider GAPLEPTYPGDNATPEQLAKYYSELRRYINKLTRPRF [4060283], for which the IC50 stood at 0.073 nM.
Turning to GAPLEPTYPGDDATPEQLAKYYSELRRYINHLTRPRY [4060306], the IC50 is 0.098 nM. This IC50 and that of the molecule before are within 1.5-fold of each other.
As to AAPLEPTYPGDNATPEQKAKYAAELRRYIDKLTRPRY [4061082], the IC50 is 0.158 nM.
In the case of GAPLEPTYPGDNATPEELAKYYSELRRYINKLTRPRY [4060315] it was 0.097 nM; in that of PAPLEPKYPGDNATPEEMAKYYSELRRYIDKLTRPRY [4060894], 0.126 nM; in that of PAPLEPVYPGDNATPEQKAKYAAELRRYIDKLTRPRY [4061085], 0.159 nM.
In the case of PAPLEPKYPGDNATPEQMAKYYSELRRYIDHLTRPRY [4060602] it was 0.173 nM; in that of GAPLEPTYPGDNATPEQLAKYYSELRRYIDKLTRPRY [4060606], 0.131 nM; in that of GAPLEPEAPGDNATPEQMAKYYSELRRYINKLTRPRY [4060691], 0.153 nM.
Under YAPLEPTYPGDNATPEQKAKYAAELRRYIDKLTRPRY [4061083] stands 0.124 nM; under PAPLEPTYPGDNATPEQLAKYYSELRRYINKLTRPRF [4060284], 0.055 nM.
With GAPLEPTYPGDNATPEQKAKYYSELRRYINKLTRPRY [4060279], the IC50 worked out at 0.067 nM.
With GAPLEPTYPGDNATPEQLAKYYSELRRYINRLTRPRY [4060276], the IC50 is 0.073 nM.
Under PAPLEPTYPGDNATPEQLAKYYSELRRYINRLTRPRY [4060277] stands 0.076 nM; under PAPLEPKAPGDNATPEQMAKYYSELRRYIDKLTRPRY [4060680], 0.109 nM.
Under PAPLEPKYPGDNATPEQLAKYAAELRRYIDKLTRPRY [4060893] stands 0.11 nM; under PAPLEPVYPGDNATPEQKAKYAAELRRYIDHLTRPRY [4061087], 0.218 nM; under PAPLEPVYPGDNATPEQKAKYAAELRRYIDRLTRPRY [4061091], 0.107 nM.
Under GAPLEPVYPGDNATPEQKAKYAAELRRYIDKLTRPRY [4061084] stands 0.174 nM; under GAPLEPVYPGDNATPEQKAKYAAELRRYIDRLTRPRY [4061090], 0.1 nM; under GAPLEPVYPGDNATPEQKAKYAAELRRYIDHLTRPRY [4061086], 0.213 nM.

Broadly, the IC50 is the concentration that gives 50% inhibition. Higher therefore signals weaker potency in that assay.

The record behind these values is patent US20100279930A1 (published 2010).
